First the molecules themselves.
B1: GpH7-B3 variant P329S / GpL16-k0 (antibody, human IgG1)
heavy: not shown
light: DIVMTQSPLSLPVTPGEPASISCQASESLVHSNRNTYLHWYLQKPGQSPQLLIYKVSNRFSGVPDRFSGSGSGTDFTLKISRVEAEDVGVYYCSQNTHVPPTFGQGTKVEIE
notes: Anti-glypican-3 IgG1; constant region B3 = G1d with K439E
B2: GpH7-B3 variant P331R / GpL16-k0 (antibody, human IgG1)
heavy: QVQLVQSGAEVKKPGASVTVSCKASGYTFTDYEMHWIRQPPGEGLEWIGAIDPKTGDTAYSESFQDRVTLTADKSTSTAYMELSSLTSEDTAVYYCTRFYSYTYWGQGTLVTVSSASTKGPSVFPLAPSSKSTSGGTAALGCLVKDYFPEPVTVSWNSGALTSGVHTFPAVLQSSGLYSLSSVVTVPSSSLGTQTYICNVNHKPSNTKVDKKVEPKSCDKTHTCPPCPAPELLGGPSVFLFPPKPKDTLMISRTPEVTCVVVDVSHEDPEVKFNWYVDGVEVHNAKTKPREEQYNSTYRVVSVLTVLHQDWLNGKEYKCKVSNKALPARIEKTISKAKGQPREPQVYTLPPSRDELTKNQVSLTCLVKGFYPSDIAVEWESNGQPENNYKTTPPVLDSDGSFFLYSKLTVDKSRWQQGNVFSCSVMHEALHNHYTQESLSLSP
light: B1 light
notes: as for B1
B3: GpH7-B3 variant A330P / GpL16-k0 (antibody, human IgG1)
heavy: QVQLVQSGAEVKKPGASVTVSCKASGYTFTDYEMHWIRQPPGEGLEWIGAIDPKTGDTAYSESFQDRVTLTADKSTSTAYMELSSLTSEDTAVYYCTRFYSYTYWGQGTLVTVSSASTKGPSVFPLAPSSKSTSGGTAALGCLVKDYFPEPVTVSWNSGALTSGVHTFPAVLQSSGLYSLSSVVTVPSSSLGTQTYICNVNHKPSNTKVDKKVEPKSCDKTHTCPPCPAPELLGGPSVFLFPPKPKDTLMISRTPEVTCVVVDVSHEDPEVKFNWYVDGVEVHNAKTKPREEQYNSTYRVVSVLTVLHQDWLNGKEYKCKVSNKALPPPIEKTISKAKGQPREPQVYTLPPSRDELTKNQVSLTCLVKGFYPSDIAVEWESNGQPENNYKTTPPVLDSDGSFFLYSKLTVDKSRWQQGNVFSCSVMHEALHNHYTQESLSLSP
light: B1 light
notes: as for B1
B4: GpH7-B3 variant I332P / GpL16-k0 (antibody, human IgG1)
heavy: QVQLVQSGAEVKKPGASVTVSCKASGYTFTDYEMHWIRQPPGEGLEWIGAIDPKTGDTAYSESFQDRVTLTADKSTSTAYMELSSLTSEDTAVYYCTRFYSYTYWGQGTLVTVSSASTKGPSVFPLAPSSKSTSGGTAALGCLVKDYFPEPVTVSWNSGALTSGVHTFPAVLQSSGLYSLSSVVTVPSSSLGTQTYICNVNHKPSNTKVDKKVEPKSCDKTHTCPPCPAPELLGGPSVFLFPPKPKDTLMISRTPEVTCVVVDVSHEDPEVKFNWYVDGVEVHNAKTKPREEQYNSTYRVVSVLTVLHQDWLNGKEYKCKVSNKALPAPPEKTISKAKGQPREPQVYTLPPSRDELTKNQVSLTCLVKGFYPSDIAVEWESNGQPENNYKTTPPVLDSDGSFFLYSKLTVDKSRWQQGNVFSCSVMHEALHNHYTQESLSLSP
light: B1 light
notes: as for B1
B5: GpH7-B3 variant P329E / GpL16-k0 (antibody, human IgG1)
heavy: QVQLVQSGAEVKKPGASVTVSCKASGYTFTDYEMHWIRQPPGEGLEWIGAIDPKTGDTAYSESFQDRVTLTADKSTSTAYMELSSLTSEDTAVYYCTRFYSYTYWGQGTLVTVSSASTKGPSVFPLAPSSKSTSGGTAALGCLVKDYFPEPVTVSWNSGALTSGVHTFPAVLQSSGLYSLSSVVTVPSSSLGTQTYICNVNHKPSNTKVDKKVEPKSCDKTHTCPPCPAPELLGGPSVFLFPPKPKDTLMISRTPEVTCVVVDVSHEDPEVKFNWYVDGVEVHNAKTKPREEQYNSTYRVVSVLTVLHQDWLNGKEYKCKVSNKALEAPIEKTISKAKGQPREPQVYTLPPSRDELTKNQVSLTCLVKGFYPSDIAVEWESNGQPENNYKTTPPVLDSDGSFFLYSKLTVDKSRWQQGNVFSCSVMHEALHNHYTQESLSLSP
light: B1 light
notes: as for B1
B6: GpH7-B3 variant I332K / GpL16-k0 (antibody, human IgG1)
heavy: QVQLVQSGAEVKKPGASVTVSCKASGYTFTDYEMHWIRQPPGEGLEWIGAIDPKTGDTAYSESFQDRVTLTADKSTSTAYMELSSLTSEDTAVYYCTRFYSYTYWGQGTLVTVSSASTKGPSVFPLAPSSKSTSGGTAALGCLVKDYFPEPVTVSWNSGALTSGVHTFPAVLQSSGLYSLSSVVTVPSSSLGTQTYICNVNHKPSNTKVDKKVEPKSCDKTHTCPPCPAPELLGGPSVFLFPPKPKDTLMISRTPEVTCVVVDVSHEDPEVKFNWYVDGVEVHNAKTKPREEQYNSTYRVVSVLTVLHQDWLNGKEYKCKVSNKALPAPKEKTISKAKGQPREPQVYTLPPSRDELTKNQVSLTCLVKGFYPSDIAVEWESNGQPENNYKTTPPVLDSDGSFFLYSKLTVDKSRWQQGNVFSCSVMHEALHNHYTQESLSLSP
light: B1 light
notes: as for B1
B7: GpH7-B3 variant P329W / GpL16-k0 (antibody, human IgG1)
heavy: not shown
light: B1 light
notes: as for B1
B8: GpH7-B3 variant P329G / GpL16-k0 (antibody, human IgG1)
heavy: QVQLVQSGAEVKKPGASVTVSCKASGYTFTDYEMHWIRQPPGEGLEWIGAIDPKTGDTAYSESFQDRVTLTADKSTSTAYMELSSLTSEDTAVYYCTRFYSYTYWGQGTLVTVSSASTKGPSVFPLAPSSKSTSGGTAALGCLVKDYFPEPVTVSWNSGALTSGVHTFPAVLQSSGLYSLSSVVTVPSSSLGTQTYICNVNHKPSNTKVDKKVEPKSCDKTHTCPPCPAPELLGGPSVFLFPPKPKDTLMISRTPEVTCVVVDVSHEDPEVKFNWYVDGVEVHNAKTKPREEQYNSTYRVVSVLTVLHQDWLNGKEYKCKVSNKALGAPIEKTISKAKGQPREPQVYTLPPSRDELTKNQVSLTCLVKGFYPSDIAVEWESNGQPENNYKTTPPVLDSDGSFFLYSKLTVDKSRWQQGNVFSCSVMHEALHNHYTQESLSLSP
light: B1 light
notes: as for B1
B9: GpH7-B3 variant P329D / GpL16-k0 (antibody, human IgG1)
heavy: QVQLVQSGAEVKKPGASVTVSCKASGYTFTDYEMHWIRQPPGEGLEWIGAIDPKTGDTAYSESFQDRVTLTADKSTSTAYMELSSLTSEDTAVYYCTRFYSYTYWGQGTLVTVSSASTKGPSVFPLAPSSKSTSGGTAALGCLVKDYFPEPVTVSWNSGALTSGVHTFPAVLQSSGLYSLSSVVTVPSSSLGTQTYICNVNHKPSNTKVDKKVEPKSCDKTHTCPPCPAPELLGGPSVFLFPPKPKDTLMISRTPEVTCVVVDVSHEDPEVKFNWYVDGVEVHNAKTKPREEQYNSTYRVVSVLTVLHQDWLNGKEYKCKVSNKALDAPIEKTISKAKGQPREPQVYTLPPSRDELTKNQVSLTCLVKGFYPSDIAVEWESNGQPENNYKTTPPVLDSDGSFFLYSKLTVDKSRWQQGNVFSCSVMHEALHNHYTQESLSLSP
light: B1 light
notes: as for B1
B10: GpH7-B3 variant I332R / GpL16-k0 (antibody, human IgG1)
heavy: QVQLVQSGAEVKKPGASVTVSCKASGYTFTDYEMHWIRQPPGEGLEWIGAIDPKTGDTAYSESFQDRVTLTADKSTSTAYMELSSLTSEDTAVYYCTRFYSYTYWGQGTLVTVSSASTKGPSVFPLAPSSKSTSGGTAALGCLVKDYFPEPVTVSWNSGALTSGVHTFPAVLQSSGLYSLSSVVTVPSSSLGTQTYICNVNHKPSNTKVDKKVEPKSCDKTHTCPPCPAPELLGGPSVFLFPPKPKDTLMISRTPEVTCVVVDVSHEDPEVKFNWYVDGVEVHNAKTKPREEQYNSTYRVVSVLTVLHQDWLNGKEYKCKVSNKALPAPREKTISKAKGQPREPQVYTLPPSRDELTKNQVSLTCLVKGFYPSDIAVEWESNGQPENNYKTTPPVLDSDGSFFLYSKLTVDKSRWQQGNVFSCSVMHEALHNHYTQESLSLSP
light: B1 light
notes: as for B1
B11: GpH7-B3 variant P329Y / GpL16-k0 (antibody, human IgG1)
heavy: not shown
light: B1 light
notes: as for B1
B12: GpH7-B3 variant A330S / GpL16-k0 (antibody, human IgG1)
heavy: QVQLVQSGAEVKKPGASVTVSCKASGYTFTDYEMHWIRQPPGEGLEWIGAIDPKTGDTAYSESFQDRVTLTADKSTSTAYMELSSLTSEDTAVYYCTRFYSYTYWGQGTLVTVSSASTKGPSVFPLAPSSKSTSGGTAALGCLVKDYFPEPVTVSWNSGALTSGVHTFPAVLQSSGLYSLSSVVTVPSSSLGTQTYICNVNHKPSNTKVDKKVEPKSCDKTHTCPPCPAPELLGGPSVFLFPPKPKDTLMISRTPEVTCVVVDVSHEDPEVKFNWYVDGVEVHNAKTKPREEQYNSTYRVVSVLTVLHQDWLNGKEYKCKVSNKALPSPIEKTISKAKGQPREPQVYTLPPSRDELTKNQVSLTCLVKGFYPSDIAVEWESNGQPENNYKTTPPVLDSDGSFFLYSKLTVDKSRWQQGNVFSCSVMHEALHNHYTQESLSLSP
light: B1 light
notes: as for B1
B13: GpH7-B3 variant P331K / GpL16-k0 (antibody, human IgG1)
heavy: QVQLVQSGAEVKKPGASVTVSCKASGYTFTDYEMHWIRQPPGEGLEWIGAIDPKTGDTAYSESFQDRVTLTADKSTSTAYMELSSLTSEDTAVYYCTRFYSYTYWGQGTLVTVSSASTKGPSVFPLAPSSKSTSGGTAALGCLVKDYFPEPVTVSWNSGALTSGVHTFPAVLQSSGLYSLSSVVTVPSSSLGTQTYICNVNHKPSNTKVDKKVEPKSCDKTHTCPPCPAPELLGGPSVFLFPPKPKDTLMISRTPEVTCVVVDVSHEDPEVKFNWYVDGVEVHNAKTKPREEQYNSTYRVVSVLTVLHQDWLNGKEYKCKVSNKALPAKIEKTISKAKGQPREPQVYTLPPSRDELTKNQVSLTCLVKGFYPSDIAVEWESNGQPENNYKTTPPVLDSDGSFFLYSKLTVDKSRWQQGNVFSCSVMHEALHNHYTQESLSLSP
light: B1 light
notes: as for B1
B14: IL6R-F652/IL6R-L (antibody, human IgG1)
heavy: QVQLQESGPGLVKPSETLSLTCAVSGHSISHDHAWSWVRQPPGEGLEWIGFISYSGITNYNPSLQGRVTISRDNSKNTLYLQMNSLRAEDTAVYYCARSLARTTAMDYWGEGTLVTVSSASTKGPSVFPLAPSSKSTSGGTAALGCLVKDYFPEPVTVSWNSGALTSGVHTFPAVLQSSGLYSLSSVVTVPSSSLGTQTYICNVNHKPSNTKVDKKVEPKSCDKTHTCPPCPAPELLGGDSVFLFPPKPKDTLYISRTPEVTCVVVDVSHEDPEVKFNWYVDGVEVHNAKTKPREEQYNSTYRVVSVLTVLHQDWLNGKEYKCKVSNKALPAPIEKTISKAKGQPREPQVYTLPPSRDELTKNQVSLTCLVKGFYPSDIAVEWESNGQPENNYKTTPPVLDSDGSFFLYSKLTVDKSRWQQGNVFSCSVMHEALHYHYTQKSLSLSP
light: DIQMTQSPSSLSASVGDRVTITCRASQDISSYLNWYQQKPGKAPKLLIYYTSRLHSGVPSRFSGSGSGTDFTFTISSLQPEDIATYYCQQGNTLPYTFGQGTKVEIK
notes: Anti-human IL-6 receptor IgG1 antibody; H chain is IL6R-F11 (M252Y/N434Y in IL6R-G1d) with P238D (EU numbering); Control antibody of the PD variants; copies: 2 + 2
B15: IL6R-PD042/IL6R-L (antibody, human IgG1)
heavy: B14 heavy with L236W
light: B14 light
notes: PD variant: P238D/L234W introduced into IL6R-F11 (EU numbering); copies: 2 + 2
B16: IL6R-BP087/IL6R-L (antibody, human IgG1)
heavy: B14 heavy with L236Y, Y254M, A332K, Y436N, K441E
light: B14 light
notes: copies: 2 + 2

The values below come from US20140105889A1 (published 2014).

Where a chain is given by its changes, count along the chain named. Names and notes keep the numbering of the source.

T2 sequence (P08637 other isoform, or with tags, fused parts or gaps limits assumed): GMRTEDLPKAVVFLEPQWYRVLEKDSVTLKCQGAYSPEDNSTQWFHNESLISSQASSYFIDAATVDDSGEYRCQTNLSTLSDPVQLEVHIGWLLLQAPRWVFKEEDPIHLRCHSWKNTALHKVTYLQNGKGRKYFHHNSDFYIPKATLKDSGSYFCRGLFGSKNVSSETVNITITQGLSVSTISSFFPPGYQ

One assay addresses T1, human FcγRIIa(H) (human, UniProt P12318 36-217).
T1 construct: Analyte in solution on Biacore; also called FcγRIIa type H; FcgRIIaH
T1 sequence: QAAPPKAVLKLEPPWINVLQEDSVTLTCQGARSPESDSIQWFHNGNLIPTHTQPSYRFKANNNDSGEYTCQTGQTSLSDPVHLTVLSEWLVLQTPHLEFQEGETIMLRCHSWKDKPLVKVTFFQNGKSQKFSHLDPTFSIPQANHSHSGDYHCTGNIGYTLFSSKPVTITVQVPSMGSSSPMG
The assay is described as follows: SPR (Biacore), antibody captured on chip, FcγR as analyte, HBS-EP+, 25°C.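 Further: FcγR binding response divided by the amount of captured antibody, then expressed relative to the reference antibody ×100, with antibodies captured via immobilized Protein A, A/G, L or antigen peptides.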 On the technique in general: SPR reads the build-up and loss of mass on a sensor chip optically.
Method: (§1) Interaction between each modified antibody and Fcγ receptor prepared in the manner described above was analyzed using the Biacore T100 (GE Healthcare), Biacore T200 (GE Healthcare), Biacore A100 or Biacore 4000. HBS-EP+ (GE Healthcare) was used for the running buffer, and measurements were carried out at 25° C. The chips used were chips in which antigen peptides, Protein A (Thermo Scientific), Protein A/G (Thermo Scientific) or Protein L (ACTIGEN or BioVision) were immobilized on the Series S Sensor Chip CM5 (GE Healthcare) or Series S Sensor Chip CM4 (GE Healthcare) by amine coupling, or chips in which preliminarily biotinylated antigen peptides were allowed to interact and then immobilized on the Series S Sensor Chip SA (certified) (GE Healthcare). The target antibodies were captured on these sensor chips, Fcγ receptor diluted with the running buffer was allowed to interact, followed by measurement of the amount of bound antibody. The amounts bound were compared between antibodies. However, since the amount of Fcγ receptor bound depends on the amount of captured antibody, the values used for comparison were first corrected by dividing the amount of Fcγ receptor bound by the captured amount of each antibody. Through reaction with 10 mM glycine-HCl at pH 1.5, the sensor chips were regenerated by washing off antibody captured on the sensor chips and used repeatedly.
(§2) Binding strength was evaluated according to the following method based on the results of analyzing the interaction with each FcγR. […] That value was then further multiplied by 100, and the resulting value was used as an indicator of relative binding activity to each FcγR.
For the molecule B1, the “relative binding activity (% of GpH7-B3/GpL16-k0)” value turned out to be 1%.
With B2, the “relative binding activity (% of GpH7-B3/GpL16-k0)” value is 59%.
Regarding B3, the “relative binding activity (% of GpH7-B3/GpL16-k0)” value came to 25%.
Regarding B4, the “relative binding activity (% of GpH7-B3/GpL16-k0)” value was 26%.
On the same count and under the same terms, next, B5: 0%; B6: 59%; B7: 0%.
Consider B8, for which the “relative binding activity (% of GpH7-B3/GpL16-k0)” value was 1%.
Take B9: the “relative binding activity (% of GpH7-B3/GpL16-k0)” value is -1%.
Regarding B10, the “relative binding activity (% of GpH7-B3/GpL16-k0)” value came out at 70%.
As for B11, the “relative binding activity (% of GpH7-B3/GpL16-k0)” value was 0%.
Turning to B12, the “relative binding activity (% of GpH7-B3/GpL16-k0)” value worked out at 0%.
Turning to B13, the “relative binding activity (% of GpH7-B3/GpL16-k0)” value is 58%.

A further assay has as its target T2, human FcγRIIIa(F) (human, UniProt P08637 17-208, limits assumed).
T2 construct: also called FcgRIIIaF; hFcgRIIIa(F)
Described as above.
Method: as §1, §2
On to B1, for which the “relative binding activity (% of GpH7-B3/GpL16-k0)” value amounted to 1%.
As for B2, the “relative binding activity (% of GpH7-B3/GpL16-k0)” value came out at 38%.
In the case of B3, the “relative binding activity (% of GpH7-B3/GpL16-k0)” value stood at 56%.
With B4, the “relative binding activity (% of GpH7-B3/GpL16-k0)” value is 14%.
Consider B5, for which the “relative binding activity (% of GpH7-B3/GpL16-k0)” value was -1%.
Take B7: the “relative binding activity (% of GpH7-B3/GpL16-k0)” value was 0%.
On to B8, for which the “relative binding activity (% of GpH7-B3/GpL16-k0)” value is 4%.
Still for that read-out and setting: next, B9: -1%; B10: 61%.
On the same count and under the same terms, next, B11: 0%; B12: 0%; B13: 34%.

For a further assay, the target named is T3, human FcγRIa (human, UniProt P12314 16-292, limits assumed).
T3 construct: Analyte in solution on Biacore; also called FcgRIa; hFcgRIa
T3 sequence (P12314 16-292 limits assumed): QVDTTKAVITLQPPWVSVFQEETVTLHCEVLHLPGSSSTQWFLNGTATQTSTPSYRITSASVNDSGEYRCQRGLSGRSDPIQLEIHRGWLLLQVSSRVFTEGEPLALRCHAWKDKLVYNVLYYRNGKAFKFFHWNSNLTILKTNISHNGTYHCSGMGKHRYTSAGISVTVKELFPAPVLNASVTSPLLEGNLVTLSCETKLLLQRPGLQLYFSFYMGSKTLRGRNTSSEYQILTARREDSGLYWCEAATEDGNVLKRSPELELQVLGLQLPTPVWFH
The assay is described as above.
Method: as §1, §2
Consider B1, for which the “relative binding activity (% of GpH7-B3/GpL16-k0)” value was determined as 60%.
The same measure, in the same setting: next, B2: 95%; B3: 87%; B4: 100%.
Turning to B5, the “relative binding activity (% of GpH7-B3/GpL16-k0)” value is 33%.
Take B6: the “relative binding activity (% of GpH7-B3/GpL16-k0)” value was 77%.
Same read-out and setting: under B7 stands 94%; under B8, 92%.
Same read-out and setting: under B9 stands 23%.
Still for that read-out and setting: under B10 stands 95%; under B11, 76%.
On to B12, for which the “relative binding activity (% of GpH7-B3/GpL16-k0)” value stood at 58%.
For the molecule B13, the “relative binding activity (% of GpH7-B3/GpL16-k0)” value came out at 98%.

Another assay concerns the target T4, human FcγRIIa(R) (human, UniProt P12318 36-217).
T4 construct: Analyte in solution on Biacore; also called FcγRIIa type R; FcgRIIaR
T4 chain: T1 sequence with H133R
The description is as above.
Method: as §1, §2
As to B1, the “relative binding activity (% of GpH7-B3/GpL16-k0)” value came to 0%.
As for B2, the “relative binding activity (% of GpH7-B3/GpL16-k0)” value was determined as 64%.
On to B3, for which the “relative binding activity (% of GpH7-B3/GpL16-k0)” value stood at 42%.
With B4, the “relative binding activity (% of GpH7-B3/GpL16-k0)” value was found to be 34%.
In the case of B5, the “relative binding activity (% of GpH7-B3/GpL16-k0)” value was -1%.
As to B6, the “relative binding activity (% of GpH7-B3/GpL16-k0)” value was 12%.
As for B7, the “relative binding activity (% of GpH7-B3/GpL16-k0)” value turned out to be 1%.
Turning to B8, the “relative binding activity (% of GpH7-B3/GpL16-k0)” value is 1%.
As to B9, the “relative binding activity (% of GpH7-B3/GpL16-k0)” value is -1%.
Turning to B10, the “relative binding activity (% of GpH7-B3/GpL16-k0)” value stood at 28%.
In the case of B11, the “relative binding activity (% of GpH7-B3/GpL16-k0)” value was -1%.
On the same count and under the same terms, under B12 stands 0%.
Consider B13, for which the “relative binding activity (% of GpH7-B3/GpL16-k0)” value turned out to be 72%.

For a further assay, the target named is T5, human FcγRIIb (human, UniProt P31994 43-217, limits assumed).
T5 construct: Analyte in solution on Biacore; also called FcgRIIb; hFcgRIIb
T5 sequence: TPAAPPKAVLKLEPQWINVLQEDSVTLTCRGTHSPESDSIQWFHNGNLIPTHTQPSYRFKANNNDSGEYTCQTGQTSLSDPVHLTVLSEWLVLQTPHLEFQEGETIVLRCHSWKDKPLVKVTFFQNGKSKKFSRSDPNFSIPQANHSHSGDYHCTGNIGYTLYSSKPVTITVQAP
Described as above.
Method: as §1, §2
Take B1: the “relative binding activity (% of GpH7-B3/GpL16-k0)” value was -1%.
On to B2, for which the “relative binding activity (% of GpH7-B3/GpL16-k0)” value was found to be 55%.
On to B3, for which the “relative binding activity (% of GpH7-B3/GpL16-k0)” value was found to be 39%.
In the case of B4, the “relative binding activity (% of GpH7-B3/GpL16-k0)” value was found to be 41%.
B5: the “relative binding activity (% of GpH7-B3/GpL16-k0)” value is -2%.
Turning to B6, the “relative binding activity (% of GpH7-B3/GpL16-k0)” value was 27%.
In the case of B7, the “relative binding activity (% of GpH7-B3/GpL16-k0)” value was 0%.
As to B8, the “relative binding activity (% of GpH7-B3/GpL16-k0)” value was 0%.
Take B9: the “relative binding activity (% of GpH7-B3/GpL16-k0)” value was -2%.
As for B10, the “relative binding activity (% of GpH7-B3/GpL16-k0)” value is 23%.
B11: the “relative binding activity (% of GpH7-B3/GpL16-k0)” value was -3%.
As to B12, the “relative binding activity (% of GpH7-B3/GpL16-k0)” value was -3%.
For the molecule B13, the “relative binding activity (% of GpH7-B3/GpL16-k0)” value worked out at 63%.

The target in a further assay is T6, human FcγRIIb (human, UniProt P31994 43-217).
T6 construct: also called FcγIIB; FcγRIIb extracellular region
T6 sequence: T5 sequence
As to the kind of experiment: SPR (Biacore), antibody captured on chip, FcγR as analyte; binding amount divided by that of IL6R-F652/IL6R-L, times 100.
B14: the “relative binding activity for FcγRIIb” value is 100 % of the binding amount of IL6R-F652/IL6R-L.
For the molecule B15, the “relative binding activity for FcγRIIb” value is 106 % of the binding amount of IL6R-F652/IL6R-L.

The target in another assay is T7, human FcγRIIa type R (human, UniProt P12318 36-217).
T7 construct: also called Fcγ RIIaR; FcγRIIa(R)
T7 chain: T1 sequence with H133R
The description is as above.
For B14, the “relative binding activity for FcγRIIaR” value is 100 % of the binding amount of IL6R-F652/IL6R-L.
On to B15, for which the “relative binding activity for FcγRIIaR” value is 240 % of the binding amount of IL6R-F652/IL6R-L.

The target in another assay is T8, human FcγRIIb (human, UniProt P31994 43-217, limits assumed).
T8 construct: also called FcγIIB; hFcgRIIb
T8 sequence: T5 sequence
The assay is described as follows: ratio of this variant's SPR KD for FcγRIIaH to its KD for FcγRIIb.
From the text: Furthermore, KD(IIaR)/KD(IIb) and KD(IIaH)/KD(IIb) in the table respectively represent the value obtained by dividing the KD value of each variant for FcγRIIaR by the KD value of each variant for FcγRIIb, and the value obtained by dividing the KD value of each variant for FcγRIIaH by the KD value of each variant for FcγRIIb.
As for B16, the “KD (IIaH)/KD (IIb)” value amounted to 34.7.
